Residue numbers refer to the chain shown, from its start. In names and notes the source's numbering stands.
Tests used:
[1] = substrate: COc1cc(/C=C/CO)cc(OC)c1O; assay: Enzyme kinetics of MOMT9-1 (4-O-methylation of phenolic substrates); type: biochemical, C. breweri; details: other: MOMT9-1
Text: (§1) Further shaping of the substrate binding pocket targeting residues Thr-319, Ile-165, Leu-133 and Leu-143 by Iterative Saturation Mutagenesis using MOMT8-1 as the starting point lead to the generation of MOMT9-1 which carried all of the substitutions of MOMT8-1 and an additional substitution of Met for Thr at position 319. Thus MOMT9-1 is a specialized (iso)eugenol-4-O-methyltransferase (s-IEMT) having 6-fold higher specific activity with coniferyl alcohol as the substrate compared to its specific activity with sinapyl alcohol as substrate. The s-IEMT designated MOMT9-1 comprises a specialized (iso)eugenol-4-O-methyltransferase having the following substitutions: T133L/E165I/F175I/F166W/H169F/M26H/S30R/V33S/T319M where amine acid residue numbers correspond to those of SEQ ID NO. 1.
(§2) Each of the s-IEMTs was isolated following expression in bacterial cells of nucleic acid sequences encoding the enzymes. The isolated enzymes were analyzed for their substrate versatility, specificity and enzyme kinetics on various phenolic substrates.

[2] = substrate: COc1cc(/C=C/CO)ccc1O; assay: as above; type: biochemical, C. breweri; details: other: MOMT9-1
Text: as §1, §2

[3] = substrate: COc1cc(/C=C/CO)cc(O)c1O; assay: Enzyme kinetics of MOMT-5 (4-O-methylation of phenolic substrates); type: biochemical, C. breweri; details: other: MOMT-5
Text: (§3) Starting with a modified (iso)eugenol-4-O-methyltransferase (m-IEMT) previously designated MOMT-5 having the five substitutions Leu for Thr at 133, Ile for Glu at 165, Ile for Phe at 175, Trp for Phe at 166 and Phe for His at 169 (T133L/E165I/F175I/F166W/H169F), where the amino acid residue numbers correspond to those for the C. breweri (iso)eugenol-4-O-methyltransferase protein (SEQ ID NO. 1), the synergistic effects of simultaneously modifying adjacent amino acids located in the substrate binding pocket have been explored. Specialized (iso)eugenol-4-O-methyltransferases (s-IEMTs) were generated that have relatively little activity on sinapyl alcohol compared to activity on p-coniferyl alcohol. Some species of s-IEMT have enhanced activity toward 4-O-methylation of ferulic acid. Additional species of s-IEMT have the capacity to generate iso-sinapyl alcohol. These s-IEMTs are useful for altering lignin precursors in plants, altering lignin composition in plants, and for producing potentially useful chemicals and chemical feedstock in plants as well as in different heterologous expression systems. […]
as §2
(§4) The specific activity of the various m-IEMT (MOMT-5) and s-IEMTs (MOMT8-2 and MOMT8-3) are shown in Table 4 and enzyme kinetic analysis is shown in Table 5.

[4] = substrate: COc1cc(/C=C/CO)cc(OC)c1O; assay: as above; type: biochemical, C. breweri; details: other: MOMT-5
Text: as §3, §2, §4

[5] = substrate: COc1cc(/C=C/CO)ccc1O; assay: as above; type: biochemical, C. breweri; details: other: MOMT-5
Text: as §3, §2, §4

[6] = substrate: COc1cc(/C=C/CO)cc(O)c1O; assay: Enzyme kinetics of MOMT8-3 (4-O-methylation of phenolic substrates); type: biochemical, C. breweri; details: other: MOMT8-3
Method: as §2
(§5) Iso-synapyl alcohol is thought to have the potential to be incorporated into lignin. These two additional specialized IEMT's having eight amino acid substitutions are designated as follows and have the indicated substitutions:
as §4

[7] = substrate: COc1cc(/C=C/CO)cc(OC)c1O; assay: as above; type: biochemical, C. breweri; details: other: MOMT8-3
Method: as §2, §5, §4

[8] = substrate: COc1cc(/C=C/CO)ccc1O; assay: as above; type: biochemical, C. breweri; details: other: MOMT8-3
Method: as §2, §5, §4

[9] = substrate: COc1cc(/C=C/CO)cc(O)c1O; assay: Enzyme kinetics of MOMT8-2 (4-O-methylation of phenolic substrates); type: biochemical, C. breweri; details: other: MOMT8-2
Method: as §2, §5, §4

[10] = substrate: COc1cc(/C=C/CO)cc(OC)c1O; assay: as above; type: biochemical, C. breweri; details: other: MOMT8-2
Method: as §2, §5, §4

[11] = substrate: COc1cc(/C=C/CO)ccc1O; assay: as above; type: biochemical, C. breweri; details: other: MOMT8-2
Method: as §2, §5, §4

[12] = Specific activity with ferulic acid as the substrate; type: biochemical
Method: as §2

[13] = Specific activity with 5-hydroxyl coniferyl alcohol (formation of iso-sinapyl alcohol); type: biochemical; details: substrate 5-hydroxyl coniferyl alcohol; product iso-sinapyl alcohol
Method: as §2
Iso-synapyl alcohol is thought to have the potential to be incorporated into lignin. These two additional specialized IEMT's having eight amino acid substitutions are designated as follows and have the indicated substitutions: […]

[14] = Enzyme kinetics, coniferyl alcohol as substrate; type: biochemical; details: coniferyl alcohol versus sinapyl alcohol
Method: as §2

[15] = substrate: COc1cc(/C=C/CO)cc(OC)c1O; assay: Enzyme kinetics of MOMT8-1 (4-O-methylation of phenolic substrates); type: biochemical, C. breweri; details: other: MOMT8-1
Text: (§6) The first library examined amino acid substitutions at positions not previously explored, i.e., Met-26, Ser-30 and Val-33. The specialized (iso)eugenol-4-O-methyltransferase (s-IEMT) having all of the MOMT-5 substitutions and the additional substitution of His for Met at position 26, Arg for Ser at 30 and Ser for Val at 33 was designated MOMT8-1. The ratio of its activity for methylation of p-coniferyl alcohol versus methylation of p-sinapyl alcohol was 7.5:1 whereas the ratio of activity of MOMT-5 was about 4.2:1.
as §2

[16] = substrate: COc1cc(/C=C/CO)ccc1O; assay: as above; type: biochemical, C. breweri; details: other: MOMT8-1
Text: as §6, §2

B1: C. breweri (iso)eugenol-4-O-methyltransferase (SEQ ID NO. 1) variant MOMT9-1, T133L/E165I/F175I/F166W/H169F/M26H/S30R/V33S/T319M (Clarkia breweri; … (protein)
chain: STGNAEIQIIPTHSSDEEANLFAHQLARAASLPMALKAAIELDVLEIMAKSVPPSGYISPAEIAAQLPTTNPEAPVMLDRVLRLLASYSVVTYTLRELPSGKVERLYGLAPVCKFLTKNEDGVSLAPFLLLATDKVLLEPWFYLKDAILEGGIPFNKAYGMNIWDYFGTDHRINKVFNKGMSSNSTITMKKILEMYNGFEGLTTIVDVGGGTGAVASMIVAKYPSINAINFDLPHVIQDAPAFSGVEHLGGDMFDGVPKGDAIFIKWICHDWSDEHCLKLLKNCYAALPDHGKVIVAEYILPPSPDPSIATKVVIHMDALMLAYNPGGKERTEKEFQALAMASGFRGFKVASCAFNTYVMEFLKTA
Km [1]: 109.5 ± 4.0 µM | Vmax [1]: 24.2 ± 0.3 nmol/mg/min | kcat [1]: 0.017 ± 0.0002 s⁻¹ | Km [2]: 16.1 ± 1.4 µM | Vmax [2]: 88.4 ± 1.7 nmol/mg/min | kcat [2]: 0.063 ± 0.001 s⁻¹

B2: C. breweri (iso)eugenol-4-O-methyltransferase (SEQ ID NO. 1) variant MOMT-5, T133L/E165I/F175I/F166W/H169F (Clarkia breweri; E165I/F166W/F175I/H169F/T133L) (protein)
chain: B1 chain with H24M, R28S, S31V, M317T
Km [3]: 105.0 ± 11.2 µM | Vmax [3]: 0.101 µmol/min/mg | kcat [3]: 0.072 ± 0.003 s⁻¹ | kcat/Km [3]: 686 M⁻¹ s⁻¹ | Km [4]: 14.7 ± 2.3 µM | Vmax [4]: 46.6 ± 1.5 nmol/mg/min | kcat [4]: 0.033 ± 0.001 s⁻¹ | Km [5]: 11.4 ± 1.6 µM | Vmax [5]: 96.1 ± 3.8 nmol/mg/min | kcat [5]: 0.069 ± 0.009 s⁻¹

B3: C. breweri (iso)eugenol-4-O-methyltransferase (SEQ ID NO. 1) variant MOMT8-3, T133L/E165I/F175I/F166W/H169F/M26S/S30F/V33G (Clarkia breweri; … (protein)
chain: B1 chain with H24S, R28F, S31G, M317T
Km [6]: 65.4 ± 13.0 µM | Vmax [6]: 0.145 µmol/min/mg | kcat [6]: 0.104 ± 0.006 s⁻¹ | kcat/Km [6]: 1590 M⁻¹ s⁻¹ | Km [7]: 35.9 ± 9.8 µM | Vmax [7]: 0.0515 µmol/min/mg | kcat [7]: 0.036 ± 0.003 s⁻¹ | kcat/Km [7]: 1000 M⁻¹ s⁻¹ | Km [8]: 23.3 ± 2.4 µM | Vmax [8]: 0.0735 µmol/min/mg | kcat [8]: 0.053 ± 0.001 s⁻¹ | kcat/Km [8]: 2270 M⁻¹ s⁻¹

B4: C. breweri (iso)eugenol-4-O-methyltransferase (SEQ ID NO. 1) variant MOMT8-2, T133L/E165I/F175I/F166W/H169F/M26S/S30F/V33Y (Clarkia breweri; … (protein)
chain: B1 chain with H24S, R28F, S31Y, M317T
Km [9]: 57.9 ± 13.0 µM | Vmax [9]: 0.123 µmol/min/mg | kcat [9]: 0.088 ± 0.006 s⁻¹ | kcat/Km [9]: 1520 M⁻¹ s⁻¹ | Km [10]: 35.2 ± 9.8 µM | Vmax [10]: 0.0379 µmol/min/mg | kcat [10]: 0.027 ± 0.002 s⁻¹ | kcat/Km [10]: 767 M⁻¹ s⁻¹ | Km [11]: 15.9 ± 1.7 µM | Vmax [11]: 0.0322 µmol/min/mg | kcat [11]: 0.023 ± 0.001 s⁻¹ | kcat/Km [11]: 1450 M⁻¹ s⁻¹

B5: MOMT-5: previously generated modified C. breweri (iso)eugenol-4-O-methyltransferase (m-IEMT), substitutions T133L/E165I/F175I/F166W/H169F (protein, UniProt O04385 3-368, looked up, variant T133L E165I F175I F166W H169F)
(Iso)eugenol …: B1 chain with H24M, R28S, S31V, M317T
Specific activity with ferulic acid as the substrate [12]: 7.84 nmol/min/mg | Specific activity with 5-hydroxyl coniferyl alcohol, iso-sinapyl alcohol [13]: 43.5 ± 4.0 nmol/mg/min | catalytic efficiency (kcat/Km) for coniferyl alcohol higher than for sinapyl alcohol [14]: less than 3 fold

B6: C. breweri (iso)eugenol-4-O-methyltransferase (SEQ ID NO. 1) variant MOMT8-1, T133L/E165I/F175I/F166W/H169F/M26H/S30R/V33S (Clarkia breweri; … (protein)
chain: B1 chain with M317T
Km [15]: 26.3 ± 4.1 µM | Vmax [15]: 8.5 ± 0.3 nmol/mg/min | kcat [15]: 0.006 ± 0.000 s⁻¹ | Km [16]: 16.1 ± 1.3 µM | Vmax [16]: 68.1 ± 1.6 nmol/mg/min | kcat [16]: 0.049 ± 0.001 s⁻¹
